This note sets out measurements from patent US20190298830A1 (SUZHOU GALAXY BIOPHARMA, published 2019).

Common to all, as to assay: cell-based or functional assay
Assay [1] addresses T1, E2 envelope protein on HCV euvirus (HCVcc) particles, strain JFH1 (2a) (Hepatitis C virus strain JFH1 (2a)).
The target in assay [2] is T2, E2 envelope protein on HCV euvirus (HCVcc) particles, strain D183 (2a) (Hepatitis C virus strain D183 (2a)).
In assay [3] the target is E2 envelope protein on HCV euvirus particles, strain PR52B6M (1b) (Hepatitis C virus strain PR52B6M (1b)).
Assay [4] addresses T3, E2 envelope protein on HCV euvirus (HCVcc) particles, strain PR79 (1b) (Hepatitis C virus strain PR79 (1b)).
In assay [5] the target is E2 envelope protein on HCV euvirus (HCVcc) particles, strain HK6a (6a) (Hepatitis C virus strain HK6a (6a)).
For assay [6], the target named is E2 envelope protein on HCV euvirus (HCVcc) particles, strain S52 (3a) (Hepatitis C virus strain S52 (3a)).
The target in assay [7] is E2 envelope protein on HCV euvirus (HCVcc) particles, strain PR52 (1b) (Hepatitis C virus strain PR52 (1b)).
Assay [8] deals with E2 envelope protein on HCV euvirus (HCVcc) particles, strain PR63 (2a) (Hepatitis C virus strain PR63 (2a)).
In assay [9] the target is T1, E2 envelope protein on HCV euvirus …. This is another data set of the same source.
Assay [10] concerns the target E2 envelope protein on HCV euvirus (HCVcc) particles, strain PR26 (1b) (Hepatitis C virus strain PR26 (1b)).
Assay [11] addresses E2 envelope protein on HCV euvirus (HCVcc) particles, strain Con1 (1b) (Hepatitis C virus strain Con1 (1b)).
Assay [12] has as its target E2 envelope protein on HCV euvirus (HCVcc) particles, strain SA13 (5a) (Hepatitis C virus strain SA13 (5a)).
Assay [13] addresses T2, E2 envelope protein on HCV euvirus …. This is another data set of the same source.
Assay [14] addresses E2 envelope protein on HCV euvirus (HCVcc) particles, strain J8 (2b) (Hepatitis C virus strain J8 (2b)).
Assay [15] addresses T3, E2 envelope protein on HCV euvirus …. The source holds these as a separate data set.

B1: human monoclonal antibody 8D6 (antibody, V domains shown)
VH: EVQLVQSGSELKKPGASLKLSCKASGYTYITPAMNWVRQAPGHGLEWMGGINTNTGNPTYAQGFAGRFVFSWDTSVSTAYLHISSLKTEDTAVYYCADTRIFSCRRGTCYGGFDVWGQGTMVTVSS
VL: DIQMTQSPSSLSASVGDRITITCRASQSISNFLNWFQHRPGKAPKLLIYGATILQSGVPSRFSGSGSGTDFTLTISSLQPEDFATYYCQQSDSSTYIFGQGTKVEIK
Consider B1, for which the “inhibition rate of HCV euvirus, at antibody concentration higher than 0.4 µg/ml” value in [1], in [2], in [3] and in [4] was > 90% each time. Also, the “IC50 (µg/ml), micro neutralization of HCV euvirus (NS5A-positive foci in Huh-7.5 cells)” value in [5] was 0.0015 µg/mL; in assay [6], 0.01 µg/mL; in [7] it was < 0.08 µg/mL; in [8], < 0.016 µg/mL; in assay [9], 0.003 µg/mL; in assay [10], 0.412 µg/mL. Further, the “IC50 (µg/ml), micro neutralization of HCV euvirus (NS5A-positive foci in Huh-7.5 cells)” value in [11] is 2.43 µg/mL; in assay [12] it was 0.087 µg/mL; in assay [13], < 0.08 µg/mL; in [14] it was 10 µg/mL; in [15], < 0.08 µg/mL.
